T1: recombinant human CD30L (human, UniProt P32971 63-234)
T1 construct: Recombinant or purified protein of the ELISA, BLI, Carterra and KinExA assays; construct not described; also called rhCD30L; huCD30L
T1 sequence (looked up): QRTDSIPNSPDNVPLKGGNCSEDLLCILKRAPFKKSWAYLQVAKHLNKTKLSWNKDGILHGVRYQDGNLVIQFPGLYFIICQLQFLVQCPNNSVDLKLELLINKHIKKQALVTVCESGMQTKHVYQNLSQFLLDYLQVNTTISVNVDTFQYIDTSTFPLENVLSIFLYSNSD

T2: human CD30L expressed on B16 cells (human, UniProt P32971 1-234)
T2 construct: whole, on cells; B16 cell line transfected to express human CD30L; also called B16-huCD30L; hCD30L B16
T2 sequence (looked up): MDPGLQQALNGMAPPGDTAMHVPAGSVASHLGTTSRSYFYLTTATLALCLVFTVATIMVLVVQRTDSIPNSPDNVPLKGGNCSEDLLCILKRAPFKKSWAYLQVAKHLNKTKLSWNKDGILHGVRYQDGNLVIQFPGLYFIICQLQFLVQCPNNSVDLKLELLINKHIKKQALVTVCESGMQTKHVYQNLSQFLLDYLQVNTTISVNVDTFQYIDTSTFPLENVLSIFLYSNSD


Tests used:
[1] = target: cynomolgus CD30L on HEK293 cells (cynomolgus); assay: cell-based or functional assay
[2] = target: T1, recombinant human CD30L; assay: ELISA on rhCD30L, OD 450 nm against Ab (nM)
[3] = target: T2, human CD30L expressed on B16 cells; assay: flow cytometry on B16-huCD30L cells, MFI against Ab (nM)
[4] = target: T3, recombinant cynomolgus CD30L protein (cynomolgus); assay: ELISA, cyCD30L, 1/50 dil
T3 construct: Recombinant protein of the ELISA; also called cyCD30L; cyno CD30L

[5] = target: T3, recombinant cynomolgus CD30L protein; assay: ELISA, cyCD30L, 1/5000 dil
[6] = target: T3, recombinant cynomolgus CD30L protein; assay: ELISA, cyCD30L, 1/500 dil

Binder	Inhibition of IL-8 release in a dual cell assay (HEK293-cyCD30L cells + K299 cells) IC50 [1] [nM]	Elisa Binding (OD) [4] [OD]	Elisa Binding (OD) [5] [OD]	Elisa Binding (OD) [6] [OD]	other results
anti-CD30L Reference 1 antibody (antibody, human IgG1, lambda, V domains shown) VH: QVQLQESGPGLVKPSETLSLTCTVSGGSISSYIWSWIRQPAGKGLEWIGRIYASGNTNYNPSLKSRVTISVDTSKNQFSLKLSSMTAADTAVYYCARDYRVAGTYYYYYGLDVWGQGTTVTVSS VL: QSALTQPASVSGSPGQSITISCTGTSSDVGVYDYVSWYQQHPGKAPKLMIYEVSNRPSGVSNRFSGSKSGNTASLTISGLQTEDEADYYCSSYTSRSTWVFGGGTKLTVLG	0.68	–	–	–	–
Clone 1, Mouse IgG (antibody, V domains shown) VH: QVQLQESGPGLVKPSETLSLTCTVSGGSISGYYWSWIRQPPVKGLEWIGYIFYSGYTKYNPSLKSRVTISVDTSKNQFSLKLSSVTAADTAVYYCARDRWDFDYWGQGALVTVSS VL: AIQMTQSPSYLSASVGDRVTIACRASQGIRNNLGWYQQKPGKAPKLLIYAESSLQSGVPSRFSGSGSGTDFTLTISSLQPEDFATYYCLQDFNYPYTFGQGTKLEIK	0.55	–	–	–	–
Clone 1, Human IgG1 (antibody, V domains shown) VH: QVQLQESGPGLVKPSETLSLTCTVSGGSISGYYWSWIRQPPVKGLEWIGYIFYSGYTKYNPSLKSRVTISVDTSKNQFSLKLSSVTAADTAVYYCARDRWDFDYWGQGALVTVSS VL: AIQMTQSPSYLSASVGDRVTIACRASQGIRNNLGWYQQKPGKAPKLLIYAESSLQSGVPSRFSGSGSGTDFTLTISSLQPEDFATYYCLQDFNYPYTFGQGTKLEIK	0.22	–	–	–	–
Clone 2, Mouse IgG (antibody, V domains shown) VH: EVQLVESGGGLVQPGRSLRLSCAASGFNFDDYAMHWVRQAPGKGLEWVSGISWRSGNIGYAGSVKGRFTISRDNAKNSLYLQMNSLRPEDSALYYCAKDKGIGFNWNYEGFDYWGQGTLVTVSS VL: DIQMTQSPSSLSASVGDRVTITCRASQGISNHLAWFQQKPGKAPKSLIYAASSLQSGVPSKFSGSGSGTDFTLTISSLQPEDFATYYCQQYVTYPLTFGGGTKVEIK	0.46	–	–	–	–
Clone 2, Human IgG1 (antibody, V domains shown) VH: EVQLVESGGGLVQPGRSLRLSCAASGFNFDDYAMHWVRQAPGKGLEWVSGISWRSGNIGYAGSVKGRFTISRDNAKNSLYLQMNSLRPEDSALYYCAKDKGIGFNWNYEGFDYWGQGTLVTVSS VL: DIQMTQSPSSLSASVGDRVTITCRASQGISNHLAWFQQKPGKAPKSLIYAASSLQSGVPSKFSGSGSGTDFTLTISSLQPEDFATYYCQQYVTYPLTFGGGTKVEIK	0.24	–	–	–	–
anti-CD30L antibody clone 80 (antibody, V domains shown, purified recombinant IgG, mouse strain #1) VH: EVQLVESGGGLVQPGGSLRLSCEVSGFTFSSYDMHWVRQVTGTGLEWVSSIGIGGDTYYPGSVKGRFTISRENAKNSLYLQMNSLRGGDTGVYYCARGEWDLLWYFMDVWGKGTTVTVSS VL: DIQMTQSPSSLSASIGDRVTITCRASQGISSWLAWYQQKPGKAPKLLIYAASSLQSGVPSRFSGSGSGTDFTLTISSLQPEDFATYYCQQANSFPLTFGGGTKVEIK	–	–	–	–	EC50 (read off the curve) [2]: ~0.1 nM; EC50 (read off the curve) [3]: ~2 nM
Clone 1 (antibody, V domains shown, also called anti-CD30L antibody clone 1 (parental)) VH: QVQLQESGPGLVKPSETLSLTCTVSGGSISGYYWSWIRQPPVKGLEWIGYIFYSGYTKYNPSLKSRVTISVDTSKNQFSLKLSSVTAADTAVYYCARDRWDFDYWGQGALVTVSS VL: AIQMTQSPSYLSASVGDRVTIACRASQGIRNNLGWYQQKPGKAPKLLIYAESSLQSGVPSRFSGSGSGTDFTLTISSLQPEDFATYYCLQDFNYPYTFGQGTKLEIK	–	2.83	1.16	2.87	–
Clone 2 (antibody, V domains shown, also called anti-CD30L antibody clone 2 (parental)) VH: EVQLVESGGGLVQPGRSLRLSCAASGFNFDDYAMHWVRQAPGKGLEWVSGISWRSGNIGYAGSVKGRFTISRDNAKNSLYLQMNSLRPEDSALYYCAKDKGIGFNWNYEGFDYWGQGTLVTVSS VL: DIQMTQSPSSLSASVGDRVTITCRASQGISNHLAWFQQKPGKAPKSLIYAASSLQSGVPSKFSGSGSGTDFTLTISSLQPEDFATYYCQQYVTYPLTFGGGTKVEIK	–	3.76	1.23	3.18	–
Clone 3 (antibody, V domains shown, hybridoma clone) VH: QVQLQESGPGLVKPSETLSLTCTVSGGSISGYYWSWIRQPPVKGLEWIGYIFYSGYTKYNPSLKSRVTISVDTSKNQFSLKLSSVTAADTAVYYCARDRWDFDYWGQGALVTVSS VL: not shown	–	3.2	0.552	2.35	–
Clone 4 (antibody, V domains shown, hybridoma clone) VH: QVQLVESGGGVVQPGRSLRLSCAASGFPFSSYGMHWVRQAPGKGLEWVTFIWFDGNNKDYADSVKGRFSVSRDNSKNTLYLQMNSLRADDTAVYYCARNGVYYGSGAYVDYWGQGTLVTVSS VL: not shown	–	2.58	0.583	2.38	–

— US20260209372A1 (PROMETHEUS BIOSCIENCES, published 2026)
